Reference: paper PMC10786891, “Massively parallel profiling of RNA-targeting CRISPR-Cas13d”

Biological target: T1, EsCas13d, nuclease-dead (Eubacterium siraeum, UniProt B0MS50, R295A;H300A;R849A;H854A)
T1 sequence: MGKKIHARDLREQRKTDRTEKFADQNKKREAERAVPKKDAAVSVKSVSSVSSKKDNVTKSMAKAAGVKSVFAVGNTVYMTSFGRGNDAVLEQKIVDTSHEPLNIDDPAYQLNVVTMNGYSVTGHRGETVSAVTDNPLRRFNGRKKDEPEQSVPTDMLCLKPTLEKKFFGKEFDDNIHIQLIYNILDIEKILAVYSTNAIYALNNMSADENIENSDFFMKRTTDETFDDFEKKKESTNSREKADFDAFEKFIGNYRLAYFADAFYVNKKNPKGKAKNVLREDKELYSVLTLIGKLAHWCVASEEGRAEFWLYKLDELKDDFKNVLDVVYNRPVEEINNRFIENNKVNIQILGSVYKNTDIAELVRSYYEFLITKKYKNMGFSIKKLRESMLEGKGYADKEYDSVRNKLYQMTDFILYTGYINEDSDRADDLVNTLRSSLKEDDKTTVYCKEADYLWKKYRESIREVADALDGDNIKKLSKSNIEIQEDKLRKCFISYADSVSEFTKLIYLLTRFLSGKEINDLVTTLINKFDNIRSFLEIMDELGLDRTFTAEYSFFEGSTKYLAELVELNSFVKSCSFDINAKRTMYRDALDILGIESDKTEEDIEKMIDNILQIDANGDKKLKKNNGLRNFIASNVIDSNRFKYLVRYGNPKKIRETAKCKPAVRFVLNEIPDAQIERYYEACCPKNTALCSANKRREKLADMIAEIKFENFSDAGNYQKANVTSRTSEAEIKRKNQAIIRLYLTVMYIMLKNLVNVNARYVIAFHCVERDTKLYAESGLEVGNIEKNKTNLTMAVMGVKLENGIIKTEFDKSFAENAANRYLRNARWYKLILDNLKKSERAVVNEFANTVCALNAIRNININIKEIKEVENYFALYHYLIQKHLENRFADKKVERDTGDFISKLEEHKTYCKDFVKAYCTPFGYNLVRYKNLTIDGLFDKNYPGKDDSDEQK
Test: crRNA (strand 1, pre-loaded); Mg2+; 40 mM Tris-HCl pH 7.5, 150 mM NaCl, 6 mM MgCl2, 1 mM DTT, 0.1% Tween-20, 0.2 mg/ml BSA; 25 C; 10 min per concentration, then washed
Details: tags: His6-TwinStrep-SUMO cleaved; N-terminal SNAP kept (SNAP-Surface 488); label: 3' end held by stalled T7 RNA polymerase

B1: target 1 del7 (mixed)
RNA 1: CACCCGUGCAAAAAUGCAGGGGUCUAAAACUGAGCGGAUAACCUCUCUAUGG
RNA 2: GGGAAUGGAUCCACAUCUACGAAUUCGUACCAUAGAGAGGUUAUCGCUCACCGAGAUCGGAAGAGCACACGU
B1 was tested, and the Kd was 8.01 ± 0.33 nM.

B2: target 1 insC 3' of 22,insG 3' of 6 (mixed)
RNA 1: CACCCGUGCAAAAAUGCAGGGGUCUAAAACUGAGCGGAUAACCUCUCUAUGG
RNA 2: GGGAAUGGAUCCACAUCUACGAAUUCGUACCCAUAGAGAGGUUAUCCGGCUCACCGAGAUCGGAAGAGCACACGU
Binder B2 has a Kd of 25.2 ± 3.3 nM.

B3: target 1 del9,del11 (mixed)
RNA 1: CACCCGUGCAAAAAUGCAGGGGUCUAAAACUGAGCGGAUAACCUCUCUAUGG
RNA 2: GGGAAUGGAUCCACAUCUACGAAUUCGUACCAUAGAGAGGUUCCGCUCACCGAGAUCGGAAGAGCACACGU
Work on B3 yielded a Kd of 13.2 ± 1 nM.

B4: target 1 insA 3' of 19,insC 3' of 9 (mixed)
RNA 1: CACCCGUGCAAAAAUGCAGGGGUCUAAAACUGAGCGGAUAACCUCUCUAUGG
RNA 2: GGGAAUGGAUCCACAUCUACGAAUUCGUACCAUAAGAGAGGUUACUCCGCUCACCGAGAUCGGAAGAGCACACGU
B4 gave a Kd of 55 ± 4 nM.

B5: target 1 insU 3' of 15,insA 3' of 15 (mixed)
RNA 1: CACCCGUGCAAAAAUGCAGGGGUCUAAAACUGAGCGGAUAACCUCUCUAUGG
RNA 2: GGGAAUGGAUCCACAUCUACGAAUUCGUACCAUAGAGUAAGGUUAUCCGCUCACCGAGAUCGGAAGAGCACACGU
B5 was tested, and the Kd was 19 ± 1.7 nM.

B6: target 1 insC 3' of 15,insC 3' of 12 (mixed)
RNA 1: CACCCGUGCAAAAAUGCAGGGGUCUAAAACUGAGCGGAUAACCUCUCUAUGG
RNA 2: GGGAAUGGAUCCACAUCUACGAAUUCGUACCAUAGAGCAGGCUUAUCCGCUCACCGAGAUCGGAAGAGCACACGU
In the case of B6, the Kd is reported as 60 ± 13 nM.

B7: target 1 insU 3' of 21,insA 3' of 3 (mixed)
RNA 1: CACCCGUGCAAAAAUGCAGGGGUCUAAAACUGAGCGGAUAACCUCUCUAUGG
RNA 2: GGGAAUGGAUCCACAUCUACGAAUUCGUACCUAUAGAGAGGUUAUCCGCUACACCGAGAUCGGAAGAGCACACGU
With B7 the Kd was 18.1 ± 0.9 nM.

B8: target 1 insA 3' of 10,insC 3' of 8 (mixed)
RNA 1: CACCCGUGCAAAAAUGCAGGGGUCUAAAACUGAGCGGAUAACCUCUCUAUGG
RNA 2: GGGAAUGGAUCCACAUCUACGAAUUCGUACCAUAGAGAGGUUAAUCCCGCUCACCGAGAUCGGAAGAGCACACGU
B8 was tested, and the Kd was 15.4 ± 0.8 nM.

B9: target 1 insC 3' of 13,insA 3' of 12 (mixed)
RNA 1: CACCCGUGCAAAAAUGCAGGGGUCUAAAACUGAGCGGAUAACCUCUCUAUGG
RNA 2: GGGAAUGGAUCCACAUCUACGAAUUCGUACCAUAGAGAGCGAUUAUCCGCUCACCGAGAUCGGAAGAGCACACGU
For B9, the Kd was 15.7 ± 1 nM.

B10: target 1 complement block 4-9 (mixed)
RNA 1: CACCCGUGCAAAAAUGCAGGGGUCUAAAACUGAGCGGAUAACCUCUCUAUGG
RNA 2: GGGAAUGGAUCCACAUCUACGAAUUCGUACCAUAGAGAGGUUUAGGCGUCACCGAGAUCGGAAGAGCACACGU
Binder B10 has a Kd of 7.99 ± 0.28 nM.

B11: target 1 insC 3' of 17,insA 3' of 15 (mixed)
RNA 1: CACCCGUGCAAAAAUGCAGGGGUCUAAAACUGAGCGGAUAACCUCUCUAUGG
RNA 2: GGGAAUGGAUCCACAUCUACGAAUUCGUACCAUAGCAGAAGGUUAUCCGCUCACCGAGAUCGGAAGAGCACACGU
B11 showed a Kd of 28 ± 4 nM.

B12: target 1 insU 3' of 12,insC 3' of 8 (mixed)
RNA 1: CACCCGUGCAAAAAUGCAGGGGUCUAAAACUGAGCGGAUAACCUCUCUAUGG
RNA 2: GGGAAUGGAUCCACAUCUACGAAUUCGUACCAUAGAGAGGUUUAUCCCGCUCACCGAGAUCGGAAGAGCACACGU
Work on B12 yielded a Kd of 19.5 ± 1 nM.

B13: target 1 insC 3' of 15,insC 3' of 15 (mixed)
RNA 1: CACCCGUGCAAAAAUGCAGGGGUCUAAAACUGAGCGGAUAACCUCUCUAUGG
RNA 2: GGGAAUGGAUCCACAUCUACGAAUUCGUACCAUAGAGCCAGGUUAUCCGCUCACCGAGAUCGGAAGAGCACACGU
In the case of B13, the Kd is reported as 26.6 ± 1.5 nM.

B14: target 1 insC 3' of 18,insG 3' of 2 (mixed)
RNA 1: CACCCGUGCAAAAAUGCAGGGGUCUAAAACUGAGCGGAUAACCUCUCUAUGG
RNA 2: GGGAAUGGAUCCACAUCUACGAAUUCGUACCAUACGAGAGGUUAUCCGCUCGACCGAGAUCGGAAGAGCACACGU
In the case of B14, the Kd is reported as 38.9 ± 2.9 nM.

B15: target 1 insU 3' of 21,insU 3' of 9 (mixed)
RNA 1: CACCCGUGCAAAAAUGCAGGGGUCUAAAACUGAGCGGAUAACCUCUCUAUGG
RNA 2: GGGAAUGGAUCCACAUCUACGAAUUCGUACCUAUAGAGAGGUUAUUCCGCUCACCGAGAUCGGAAGAGCACACGU
B15 gave a Kd of 37 ± 4 nM.

B16: target 1 C4G,C7G (mixed)
RNA 1: CACCCGUGCAAAAAUGCAGGGGUCUAAAACUGAGCGGAUAACCUCUCUAUGG
RNA 2: GGGAAUGGAUCCACAUCUACGAAUUCGUACCAUAGAGAGGUUAUGCGGUCACCGAGAUCGGAAGAGCACACGU
In the case of B16, the Kd is reported as 9.7 ± 0.5 nM.

B17: target 1 C2U,C4G (mixed)
RNA 1: CACCCGUGCAAAAAUGCAGGGGUCUAAAACUGAGCGGAUAACCUCUCUAUGG
RNA 2: GGGAAUGGAUCCACAUCUACGAAUUCGUACCAUAGAGAGGUUAUCCGGUUACCGAGAUCGGAAGAGCACACGU
With B17 the Kd was 5.1 ± 0.5 nM.

B18: target 1 A1G,U19G (mixed)
RNA 1: CACCCGUGCAAAAAUGCAGGGGUCUAAAACUGAGCGGAUAACCUCUCUAUGG
RNA 2: GGGAAUGGAUCCACAUCUACGAAUUCGUACCAGAGAGAGGUUAUCCGCUCGCCGAGAUCGGAAGAGCACACGU
Work on B18 yielded a Kd of 51 ± 6 nM.

B19: target 1 C7U,G17C (mixed)
RNA 1: CACCCGUGCAAAAAUGCAGGGGUCUAAAACUGAGCGGAUAACCUCUCUAUGG
RNA 2: GGGAAUGGAUCCACAUCUACGAAUUCGUACCAUACAGAGGUUAUUCGCUCACCGAGAUCGGAAGAGCACACGU
B19 gave a Kd of 77 ± 35 nM.

B20: target 1 insC 3' of 16,insA 3' of 7 (mixed)
RNA 1: CACCCGUGCAAAAAUGCAGGGGUCUAAAACUGAGCGGAUAACCUCUCUAUGG
RNA 2: GGGAAUGGAUCCACAUCUACGAAUUCGUACCAUAGACGAGGUUAUCACGCUCACCGAGAUCGGAAGAGCACACGU
Binder B20 has a Kd of 63 ± 15 nM.

B21: target 1 G5A,C7G (mixed)
RNA 1: CACCCGUGCAAAAAUGCAGGGGUCUAAAACUGAGCGGAUAACCUCUCUAUGG
RNA 2: GGGAAUGGAUCCACAUCUACGAAUUCGUACCAUAGAGAGGUUAUGCACUCACCGAGAUCGGAAGAGCACACGU
B21 gave a Kd of 11.8 ± 0.8 nM.

B22: target 1 insU 3' of 18,insG 3' of 4 (mixed)
RNA 1: CACCCGUGCAAAAAUGCAGGGGUCUAAAACUGAGCGGAUAACCUCUCUAUGG
RNA 2: GGGAAUGGAUCCACAUCUACGAAUUCGUACCAUAUGAGAGGUUAUCCGCGUCACCGAGAUCGGAAGAGCACACGU
For B22, the Kd was 20 ± 1.2 nM.

B23: target 1 insG 3' of 14,insA 3' of 6 (mixed)
RNA 1: CACCCGUGCAAAAAUGCAGGGGUCUAAAACUGAGCGGAUAACCUCUCUAUGG
RNA 2: GGGAAUGGAUCCACAUCUACGAAUUCGUACCAUAGAGAGGGUUAUCCAGCUCACCGAGAUCGGAAGAGCACACGU
B23 gave a Kd of 14.6 ± 1.3 nM.

B24: target 1 insC 3' of 5 (mixed)
RNA 1: CACCCGUGCAAAAAUGCAGGGGUCUAAAACUGAGCGGAUAACCUCUCUAUGG
RNA 2: GGGAAUGGAUCCACAUCUACGAAUUCGUACCAUAGAGAGGUUAUCCGCCUCACCGAGAUCGGAAGAGCACACGU
In the case of B24, the Kd is reported as 9.6 ± 0.7 nM.
